We go through 1 molecule from article PMC8376927 (2021).

Non-standard residues stand in square brackets, D forms with d. No end group written: not given here. *: point of attachment. 5FAM = O=C1OC2(c3ccc(O)cc3Oc3cc(O)ccc32)c2ccc(C(=O)*)cc21; pS = N[C@@H](COP(=O)(O)O)C(=O)O

The assay concerns the target T1, Human 14-3-3γ WT (human, UniProt P61981 1-247).
T1 chain: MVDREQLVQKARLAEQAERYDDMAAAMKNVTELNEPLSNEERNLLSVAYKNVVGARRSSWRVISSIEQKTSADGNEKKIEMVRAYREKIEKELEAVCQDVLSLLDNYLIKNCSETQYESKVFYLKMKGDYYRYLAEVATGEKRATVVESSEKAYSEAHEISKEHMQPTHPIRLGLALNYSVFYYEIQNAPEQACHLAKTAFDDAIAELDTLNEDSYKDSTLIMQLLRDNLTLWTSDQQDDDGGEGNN
In words: FP.

B1: FAM-aidDAPK-pS318 peptide (FAM-RRRWKLpSFSIV) (peptide)
peptide: 5FAM-RRRWKL[pS]FSIV
As usually defined, the Kd is the free concentration of one partner at which half of the binding sites on the other are occupied at equilibrium, for simple one-to-one binding. Low readings indicate a tighter complex, high ones a looser complex. On to B1, for which the affinity, expressed as Kd, was 48 µM.
